{
  "source": "patent US5674842A",
  "about": "“Growth inhibitory peptide” (Health Research, Incorporated, priority 1994, dated 1997)",
  "key": {"[1]": {"experiment": "Retention of inhibitory activity on storage", "type": "physicochemical", "conditions": "transformed human AFP preparation"}, "[2]": {"tested_on": "estrogen-stimulated growth of mouse uterus", "conditions": "full-length transformed AFP molecule, see references cited; cited from earlier work"}},
  "data": [
    {"molecule": "full-length transformed AFP molecule: full-length alpha-fetoprotein transformed by incubation with estradiol to an inhibitor of estrogen-stimulated growth (protein, UniProt P02771 1-609, looked up, full-length estradiol-transformed) MKWVESIFLIFLLNFTESRTLHRNEYGIASILDSYQCTAEISLADLATIFFAQFVQEATYKEVSKMVKDALTAIEKPTGDEQSSGCLENQLPAFLEELCHEKEILEKYGHSDCCSQSEEGRHNCFLAHKKPTPASIPLFQVPEPVTSCEAYEEDRETFMNKFIYEIARRHPFLYAPTILLWAARYDKIIPSCCKAENAVECFQTKAATVTKELRESSLLNQHACAVMKNFGTRTFQAITVTKLSQKFTKVNFTEIQKLVLDVAHVHEHCCRGDVLDCLQDGEKIMSYICSQQDTLSNKITECCKLTTLERGQCIIHAENDEKPEGLSPNLNRFLGDRDFNQFSSGEKNIFLASFVHEYSRRHPQLAVSVILRVAKGYQELLEKCFQTENPLECQDKGEEELQKYIQESQALAKRSCGLFQKLGEYYLQNAFLVAYTKKAPQLTSSELMAITRKMAATAATCCQLSEDKLLACGEGAADIIIGHLCIRHEMTPVNPGVGQCCTSSYANRRPCFSSLVVDETYVPPAFSDDKFIFHKDLCQAQGVALQTMKQEFLINLVKQKPQITEEQLEAVIADFSGLLEKCCQGQEQEVCFAEEGQKLISKTRAALGV", "values": [
      {"measurement": "time activity is retained", "setting": "[1]", "value": "one"},
      {"measurement": "inhibition of estrogen-stimulated growth", "setting": "[2]", "value": "20-40%"}
    ]}
  ]
}
